Where no end group is shown, it is not given here. Fuc = fucose (fucosylation)
Columns and labels:
[1] = target: Baculovirus-derived recombinant human urokinase receptor, truncated soluble molecule, biotinylated (human) (UniProt Q03405); experiment: phage panning on biotinylated soluble uPAR on streptavidin plates; eluted cfu as a percentage of input; control phage
[2] = target: Baculovirus-derived recombinant human urokinase receptor, truncated soluble molecule, biotinylated (human) (UniProt Q03405); experiment: phage panning on biotinylated soluble uPAR on streptavidin plates; eluted cfu as a percentage of input; control phagemid
[3] = target: Baculovirus-derived recombinant human urokinase receptor, truncated soluble molecule, biotinylated (human) (UniProt Q03405); experiment: phage panning on biotinylated soluble uPAR on streptavidin plates; eluted cfu as a percentage of input
[4] = test system: SaOS-2 osteosarcoma cell line; conditions: cited from earlier work
uPAR = uPAR (Homo sapiens, UniProt Q03405); conditions: cited from earlier work
uPAR, sequence (Q03405 23-335): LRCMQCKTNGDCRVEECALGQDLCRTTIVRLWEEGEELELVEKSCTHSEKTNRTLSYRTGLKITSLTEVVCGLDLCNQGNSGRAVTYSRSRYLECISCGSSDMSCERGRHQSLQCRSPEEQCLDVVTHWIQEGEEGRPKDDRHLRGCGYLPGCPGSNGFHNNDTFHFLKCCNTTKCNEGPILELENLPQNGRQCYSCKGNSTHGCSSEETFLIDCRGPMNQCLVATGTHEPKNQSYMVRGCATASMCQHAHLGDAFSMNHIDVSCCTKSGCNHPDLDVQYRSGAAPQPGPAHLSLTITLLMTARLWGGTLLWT

[5] = target: Baculovirus-derived recombinant human urokinase receptor, truncated soluble molecule, biotinylated (human, UniProt Q03405, biotinylated with NHS-biotin); experiment: radio-receptor competition assay: 125I-ATF tracer on biotinylated soluble uPAR immobilised on streptavidin plates
Method: Baculovirus-derived recombinant human urokinase receptor was expressed as a truncated, soluble molecule as described previously for mouse L-cells (Masucci et al., *J Biol Chem* (1991) 266:8655). The purified receptor was biotinylated with NHS-biotin, and immobilized at 1 μg/mL in PBS/0.1% BSA on streptavidin coated 96-well plates. Human uPA ATF (residues 1–135, obtained from M. Shuman, University of California, San Francisco) was iodinated using the Iodogen method (Pierce), and used as tracer. The ^125I-ATF was incubated at 100–500 pM with increasing amounts of huPA_1-48 in triplicate (100 pM-1 μM) for 2 hours at room temperature in 0.1% BSA/PBS in a total volume of 200 μL. The plates were then washed 3 times with PBS/BSA, and the remaining bound radioactivity determined.

Q: With “LP67 control phage (ampicillin-resistant M13)” as the molecule, how does the % Yield (+uPAR) [1] read?
A: 0.0099%

Q: With “Phagemid pGMEGF displaying M1-FLAG-EGF-medium long pIII (from UniProt P01133)” as the molecule, how does the % Yield (+uPAR) [2] read?
A: 0.0012%

Q: Which % Yield (+uPAR) [3] does the source give for “Phagemid pHM1a displaying M1-FLAG-UPAELD-short pIII (M1Flag-uPA1-48) (from UniProt P00749)” here?
A: 0.094%

Q: With “Phagemid pHM3a displaying Glu-tag-UPAELD-short pIII (Glutag-uPA1-48) (from UniProt P00749)” as the molecule, how does the % Yield (+uPAR) [3] read?
A: 0.08%

Q: Which mitogenic activity [4] does the source give for “fucosylated EGF-like domain: fucosylated EGF-like domain (uPA4-43, produced by cleavage from pro-uPA) (LHQVPSNCDCLNGGT(Fuc)CVSNKYFSNIHWCNCPKKFGGQHCE; cysteine pairing not given here; UniProt P00749 24-63, looked up, fragment)” here?
A: mitogenic

Q: Which “affinity relative to intact ATF (fold less)” value (uPAR; compared with intact ATF) does the source give for “uPA12-32: the critical domain alone, residues 12-32 of uPA (Appella et al.) (DCLNGGTCVSNKYFSNIHWCN; UniProt P00749 32-52, looked up, fragment)” here?
A: about 100 fold

Q: And the Kd (uPAR; critical domain alone, read-out: affinity for uPAR)?
A: 40 nM

B1: huPA1-48 (residues 1-48 of mature human urokinase-type plasminogen activator, non-fucosylated, secreted from yeast) (ligand)
chain: SNELHQVPSNCDCLNGGTCVSNKYFSNIHWCNCPKKFGGQHCEIDKSK
modifications: ends and bridges not checked; cysteine pairing not given here
Q: Which Kd [5] does the source give for B1 here?
A: 0.3 nM
